Patent US10208087B2, “Peptides” (Hoffmann-La Roche Inc., priority 2014, dated 2019)
Structures can show the parent of a compound that is named as a salt. Starred links: 1 amine or outer side, 2 acyl side, 3 side chain; linkers in the order of their positions; H or OH if unused. Non-standard residues stand in square brackets, D forms with d. Residues, ends and D or L forms follow the SMILES beside them. No end group written: not given here. *: point of attachment. Elaidic = elaidic acid acyl on Lys side chain, CCCCCCCC/C=C/CCCCCCCC(=O)*; MetSta(3S,4S) = CSCC[C@H](N[*:1])[C@@H](O)CC(=O)[*:2]; Palmitoleoyl = CCCCCC/C=C\CCCCCCCC(=O)*; Sta = CC(C)C[C@H](N)[C@@H](O)CC(=O)O; Palmitoyl = CCCCCCCCCCCCCCCC(=O)*; PEG4 = NCCOCCOCCOCCOCCC(=O)O; PEG3 = NCCOCCOCCOCCC(=O)O; Nle = CCCC[C@H](N)C(=O)O; Palm = palmityl

Assays:
BACE1 [1] = biological target: T1, BACE1 (Homo sapiens, UniProt P56817); test: Cellular Aβ-lowering Assay; format: cell-based; conditions: Aβ40 in culture supernatant (ELISA) of human HEK293 cells stably expressing human APP wt (APP695); 18-20 hrs incubation
T1 construct: Human HEK293 cells which are stably transfected with a vector expressing a cDNA of the human APP wt gene (APP695); endogenous in cells; host or cells: HEK293 cells stably transfected with human APP695 wt
Procedure: The compounds were investigated in accordance with the test given hereinafter. Cellular Aβ-lowering Assay: Human HEK293 cells which are stably transfected with a vector expressing a cDNA of the human APP wt gene (APP695) were used to assess the potency of the compounds in a cellular assay. […] After blocking of non-specific binding sites with e.g. 1% BSA and washing, the culture supernatants were added in suitable dilutions together with a horseradish peroxidase-coupled Aβ detection antibody (e.g., antibody 4G8, Senetek, Maryland Heights, Mo.) and incubated for 5 to 7 hrs. Subsequently the wells of the microtiter plate were washed extensively with Tris-buffered saline containing 0.05% Tween 20 and the assay was developed with tetramethylbenzidine/H2O2 in citric acid buffer. After stopping the reaction with one volume 1 N H2SO4 the reaction was measured in an ELISA reader at 450 nm wavelength. The concentrations of Aβ in the culture supernatants were calculated from a standard curve obtained with known amounts of pure Aβ peptide.

BACE1 [2] = biological target: BACE1 (UniProt P56817 46-501, limits assumed); test: cell-based or functional assay
Sequence of BACE1 (UniProt P56817 46-501, limits assumed) (P56817 46-501 limits assumed): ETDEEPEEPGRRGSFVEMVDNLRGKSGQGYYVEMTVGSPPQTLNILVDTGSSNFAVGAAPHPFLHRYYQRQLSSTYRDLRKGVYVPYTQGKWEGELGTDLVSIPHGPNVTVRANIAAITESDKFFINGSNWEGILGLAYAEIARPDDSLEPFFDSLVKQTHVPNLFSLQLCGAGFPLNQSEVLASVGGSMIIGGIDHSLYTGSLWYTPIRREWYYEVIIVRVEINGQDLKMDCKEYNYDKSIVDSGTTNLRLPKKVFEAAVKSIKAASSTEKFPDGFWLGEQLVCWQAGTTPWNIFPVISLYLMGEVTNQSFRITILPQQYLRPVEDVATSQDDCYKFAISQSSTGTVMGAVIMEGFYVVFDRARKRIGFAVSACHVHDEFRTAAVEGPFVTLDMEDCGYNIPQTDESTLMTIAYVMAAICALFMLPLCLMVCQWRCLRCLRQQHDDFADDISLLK

T1 sequence (P56817 46-501): as the sequence (P56817 46-501 limits assumed) above

| IC50 (BACE1 [1]) [nM] | IC50, cellular Aβ-lowering assay (Aβ40 in supernatant of HEK293 cells expressing human APP695) (BACE1 [2]) [nM] | Molecule |
| --- | --- | --- |
| 120 |  | CCCCCCCCCCCCCCCC(=O)NCCCC[C@H](NC(=O)[C@H](Cc1ccccc1)NC(=O)[C@H](CCC(=O)O)NC(=O)[C@H](C)NC(=O)[C@@H](NC(=O)C[C@H](O)[C@H](CC(C)C)NC(=O)[C@H](CC(N)=O)NC(=O)[C@@H](NC(=O)[C@H](CCC(=O)O)NC(=O)CNC(=O)[C@H](CCCC)NC(=O)CNC(=O)[C@H](CC(C)C)NC(=O)[C@@H]1CCCN1C(=O)[C@@H](NC(=O)[C@H](Cc1ccccc1)NC(=O)[C@H](Cc1ccc(O)cc1)NC(=O)[C@@H]1CCCN1C(=O)[C@@H](N)Cc1ccc(O)cc1)[C@@H](C)CC)C(C)C)C(C)C)C(N)=O [Example 6, Tyr-Pro-Tyr-Phe-Ile-Pro-Leu-Gly-Nle-Gly-Glu-Val-Asn-Sta-Val-Ala-Glu-Phe-Lys(Palmityl)-NH2 x TFA] |
| 41 |  | CCCCCCCCCCCCCCCC(=O)NCCCC[C@H](NC(=O)[C@@H](Cc1ccccc1)NC(=O)[C@H](CCC(=O)O)NC(=O)[C@H](C)NC(=O)[C@@H](NC(=O)C[C@H](O)[C@H](CCSC)NC(=O)[C@H](CC(N)=O)NC(=O)[C@@H](NC(=O)[C@H](CCC(=O)O)NC(=O)CCOCCOCCOCCNC(=O)[C@H](CC(C)C)NC(=O)[C@@H]1CCCN1C(=O)[C@@H](NC(=O)[C@H](Cc1ccccc1)NC(=O)[C@H](Cc1ccc(O)cc1)NC(=O)[C@@H]1CCCN1C(=O)[C@@H](N)Cc1ccc(O)cc1)[C@@H](C)CC)C(C)C)C(C)C)C(N)=O [Example 33, Tyr-Pro-Tyr-Phe-Ile-Pro-Leu-(PEG)3-Glu-Val-Asn-MetSta-Val-Ala-Glu-DPhe-Lys(Palm)-NH2 x TFA] (H-YPYFIPL[PEG3]EVN[MetSta(3S,4S)]VAE[dF]K(Palmitoyl)-NH2; N-terminus assumed) |
|  | 53 | YPYFIPLAGGEVN[Sta]VAEFK(Palm)-NH2 (also: TFA salt) [YPYFIPL-AGG-EVN-Sta-VAEFK(Palm)-NH2 x TFA] |
|  | 208 | YPKFIPLG[dK]GEVN[Sta]VAE[dP]K(Myristoleic)-NH2 (also: 3TFA salt) [YPKFIPL-GkG-EVN-Sta-VAEp-K(Myristoleic)-NH2 x 3TFA] |
|  | 140 | YPYFIPLGPGEVN[Sta]VAEFK(Palm)-NH2 (also: TFA salt) [YPYFIPL-GPG-EVN-Sta-VAEFK(Palm)-NH2 x TFA] |
|  | 19.9 | YPKFIPLG[dK]GEVN[Sta]VAE[dP]K(Palmitoleoyl)-NH2 (also: 3TFA salt) [YPKFIPL-GkG-EVN-Sta-VAEp-K(Palmitoleic)-NH2 x 3TFA] |
|  | 120 | YPYFIPLG[Nle]GEVN[Sta]VAEFK(Palm)-NH2 (also: TFA salt) [YPYFIPL-G-Nle-G-EVN-Sta-VAEFK(Palm)-NH2 x TFA] |
|  | 98 | YPYFIPLG[dA][dK]EVN[Sta]VAEFK(Palm)-NH2 (also: TFA salt) [YPYFIPL-Gak-EVN-Sta-VAEFK(Palm)-NH2 x TFA] |
|  | 41 | YPYFIPL[PEG3]EVN[MetSta(3S,4S)]VAE[dF]K(Palm)-NH2 (also: TFA salt) [YPYFIPL-PEG(3)-EVN-MetSta-VAE-DPhe-K(Palm)-NH2 x TFA] |
|  | 1.37 | YPKFIPLG[dK]GEVN[Sta]VAE[dP]K(Palm)-NH2 (also: 3TFA salt) [YPKFIPL-GkG-EVN-Sta-VAEp-K(Palm)-NH2 x 3TFA] |
|  | 48 | YPYFIPLG[dP]GEVN[Sta]VAEFK(Palm)-NH2 (also: TFA salt) [YPYFIPL-GpG-EVN-Sta-VAEFK(Palm)-NH2 x TFA] |
|  | 120 | YPYFIPLGGGEVN[Sta]VAEFK(Palm)-NH2 (also: TFA salt) [YPYFIPL-GGG-EVN-Sta-VAEFK(Palm)-NH2 x TFA] |

Continued, molecule first:

| Molecule | IC50 (BACE1 [1]) [nM] | IC50, cellular Aβ-lowering assay (Aβ40 in supernatant of HEK293 cells expressing human APP695) (BACE1 [2]) [nM] |
| --- | --- | --- |
| CCCCCCCCCCCCCCCC(=O)NCCCC[C@H](NC(=O)[C@H](Cc1ccccc1)NC(=O)[C@H](CCC(=O)O)NC(=O)[C@H](C)NC(=O)[C@@H](NC(=O)C[C@H](O)[C@H](CC(C)C)NC(=O)[C@H](CC(N)=O)NC(=O)[C@@H](NC(=O)[C@H](CCC(=O)O)NC(=O)CNC(=O)[C@H](CO)NC(=O)CNC(=O)[C@H](CC(C)C)NC(=O)[C@@H]1CCCN1C(=O)[C@@H](NC(=O)[C@H](Cc1ccccc1)NC(=O)[C@H](Cc1ccc(O)cc1)NC(=O)[C@@H]1CCCN1C(=O)[C@@H](N)Cc1ccc(O)cc1)[C@@H](C)CC)C(C)C)C(C)C)C(N)=O [Example 9, Tyr-Pro-Tyr-Phe-Ile-Pro-Leu-Gly-Ser-Gly-Glu-Val-Asn-Sta-Val-Ala-Glu-Phe-Lys(Palmityl)-NH2 x TFA] (H-YPYFIPLGSGEVN[Sta]VAEFK(Palmitoyl)-NH2; N-terminus assumed) | 41 |  |
| YPKFIPLG[dK]GEVN[Sta]VAE[dP]K(Elaidic)-NH2 (also: 3TFA salt) [YPKFIPL-GkG-EVN-Sta-VAEp-K(Elaidic)-NH2 x 3TFA] |  | 3.02 |
| YPKFIPLG[dK]GEVN[Sta]VAE[dP]K(Vaccenic)-NH2 (also: 3TFA salt) [YPKFIPL-GkG-EVN-Sta-VAEp-K(Vaccenic)-NH2 x 3TFA] |  | 2.68 |
| YPYFIPLG[dK]GEVN[Sta]VAEFK(Palm)-NH2 (also: TFA salt) [YPYFIPL-GkG-EVN-Sta-VAEFK(Palm)-NH2 x TFA] |  | 64 |
| YPYFIPL[PEG4]EVN[MetSta(3S,4S)]VAE[dF]K(Palm)-NH2 (also: TFA salt) [YPYFIPL-PEG(4)-EVN-MetSta-VAE-DPhe-K(Palm)-NH2 x TFA] |  | 18 |
| YPKFIPLG[dK]GEVN[Sta]VAE[dP]K(Erucic)-NH2 (also: 3TFA salt) [YPKFIPL-GkG-EVN-Sta-VAEp-K(Erucic)-NH2 x 3TFA] |  | 1.15 |
| YPYFIPLGSGEVN[Sta]VAEFK(Palm)-NH2 (also: TFA salt) [YPYFIPL-GSG-EVN-Sta-VAEFK(Palm)-NH2 x TFA] |  | 41 |
| YPYFIPLGGSEVN[Sta]VAEFK(Palm)-NH2 (also: TFA salt) [YPYFIPL-GGS-EVN-Sta-VAEFK(Palm)-NH2 x TFA] |  | 53 |
| YPKFIPLG[dK]GEVN[Sta]VAE[dP]K(Oleic)-NH2 (also: 3TFA salt) [YPKFIPL-GkG-EVN-Sta-VAEp-K(Oleic)-NH2 x 3TFA] |  | 6.02 |
